# Laboratory results from patent US20180186896A1.
# Molecular target: membrane IgE C2C4 expressed on Ramos cells (in the presence of Ig-alpha and Ig-beta) (human) (UniProt P01854)
# Assay: flow cytometry, MFI on C2C4-expressing Ramos cells divided by MFI on non-induced cells
row,MFI ratio,Substance
1,> 5,positive control mAB anti-IgE BSW17 (antibody)
2,> 5,positive control mAB anti-IgE Le27 (antibody)

row,Substance,MFI ratio
1,"Negative controls (right sample block, starting with no primary AB)",1
